Experiments:
[1] = molecular target: T1, soluble-type human DSG3-mouse IgG2aFc fusion protein (human; mouse, UniProt P32926 50-616); experiment: sandwich ELISA, luminescence over blank; immobilized DF151, detection D219-3; antigen 1000 pg/mL
T1 construct: also called human desmoglein 3; desmoglein 3 standard; not shown: mouse IgG2a Fc, printed 'mouse IgG2aFc' and 'mouse IgG2 constant region'
T1 sequence: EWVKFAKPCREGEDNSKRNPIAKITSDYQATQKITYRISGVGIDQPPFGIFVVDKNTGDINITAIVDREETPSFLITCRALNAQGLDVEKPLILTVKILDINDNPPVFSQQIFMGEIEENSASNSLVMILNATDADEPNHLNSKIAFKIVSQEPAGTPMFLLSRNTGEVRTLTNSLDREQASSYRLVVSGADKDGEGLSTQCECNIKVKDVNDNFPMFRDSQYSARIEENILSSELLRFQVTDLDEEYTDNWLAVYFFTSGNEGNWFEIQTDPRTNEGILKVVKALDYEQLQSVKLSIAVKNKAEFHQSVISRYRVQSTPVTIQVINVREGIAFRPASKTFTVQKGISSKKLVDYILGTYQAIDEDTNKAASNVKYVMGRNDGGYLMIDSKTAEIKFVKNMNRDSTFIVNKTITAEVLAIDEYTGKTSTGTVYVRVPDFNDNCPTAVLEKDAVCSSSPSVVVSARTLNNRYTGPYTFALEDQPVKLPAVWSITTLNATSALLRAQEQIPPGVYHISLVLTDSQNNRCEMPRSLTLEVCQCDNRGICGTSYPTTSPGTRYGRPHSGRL
Description: (§1) Subsequently, the antigen solutions having the above-described concentrations were each added to the plate in an amount of 50 μL/well, and the plate was incubated at room temperature for 1 hour. Then, the antigen solution was removed, and the plate was washed with 0.05% Tween 20-PBS three times. Thereafter, the 1-μg/mL biotinylated antibody solution was added in an amount of 50 μL/well, and the plate was incubated at room temperature for 1 hour.
(§2) Then, after removing the streptavidin-HRP solution and washing the plate with 0.05% Tween 20-PBS three times, a substrate solution (SuperSignal ELISA Femto Maximum Sensitivity Substrate (registered trademark); Pierce Biotechnology, Inc.) was added in an amount of 100 μL/well. One minute thereafter, the luminescence intensity was measured using a luminometer, Fluoroskan Ascent FL (trade name, Thermo Electron Corporation).
(§3) The numerical values shown in Table 1 represent the minimum values of the antigen solution concentration having an S/N ratio of higher than 2 (hereinafter, referred to as “detection limit concentration”) and the unit of the numerical values is pg/mL. The S/N ratio was determined by dividing the luminescence intensity at the respective antigen solution concentrations ([…]) by the luminescence intensity of an antigen-free blank antigen solution (0 μg/mL).

[2] = molecular target: T1, soluble-type human DSG3-mouse IgG2aFc …; experiment: sandwich ELISA, luminescence over blank; immobilized DF151, detection DF151; antigen 40 pg/mL
Description: as §1, §2, §3

[3] = molecular target: T1, soluble-type human DSG3-mouse IgG2aFc …; experiment: sandwich ELISA, luminescence over blank; immobilized DF151, detection DF151; antigen 1000 pg/mL
Description: as §1, §2, §3

[4] = molecular target: T1, soluble-type human DSG3-mouse IgG2aFc …; experiment: sandwich ELISA, luminescence over blank; immobilized DF151, detection D219-3; antigen 1 pg/mL
Description: as §1, §2
(§4) The numerical values shown in Table 1 represent the minimum values of the antigen solution concentration having an S/N ratio of higher than 2 (hereinafter, referred to as “detection limit concentration”) and the unit of the numerical values is pg/mL. […]

[5] = molecular target: T1, soluble-type human DSG3-mouse IgG2aFc …; experiment: sandwich ELISA, luminescence over blank; immobilized DF151, detection D219-3; antigen 5000 pg/mL
Description: as §1, §2, §3

[6] = molecular target: T1, soluble-type human DSG3-mouse IgG2aFc …; experiment: sandwich ELISA, luminescence over blank; immobilized DF151, detection D219-3; antigen 200 pg/mL
Description: as §1, §2, §3

[7] = molecular target: T1, soluble-type human DSG3-mouse IgG2aFc …; experiment: sandwich ELISA, luminescence over blank; immobilized DF151, detection D219-3; antigen 25000 pg/mL
Description: as §1, §2, §3

[8] = molecular target: T1, soluble-type human DSG3-mouse IgG2aFc …; experiment: sandwich ELISA, luminescence over blank; immobilized DF151, detection MAB1720; antigen 200 pg/mL
Description: as §1, §2, §3

[9] = molecular target: T1, soluble-type human DSG3-mouse IgG2aFc …; experiment: sandwich ELISA, luminescence over blank; immobilized DF151, detection MAB1720; antigen 10 pg/mL
Description: as §1, §2, §4

[10] = molecular target: T1, soluble-type human DSG3-mouse IgG2aFc …; experiment: sandwich ELISA, luminescence over blank; immobilized DF151, detection MAB1720; antigen 1000 pg/mL
Description: as §1, §2, §3

[11] = molecular target: T1, soluble-type human DSG3-mouse IgG2aFc …; experiment: sandwich ELISA, luminescence over blank; immobilized DF151, detection D219-3; antigen 10 pg/mL
Description: as §1, §2, §3

[12] = molecular target: T1, soluble-type human DSG3-mouse IgG2aFc …; experiment: sandwich ELISA, luminescence over blank; immobilized DF151, detection MAB1720; antigen 5000 pg/mL
Description: as §1, §2, §3

[13] = molecular target: T1, soluble-type human DSG3-mouse IgG2aFc …; experiment: sandwich ELISA, luminescence over blank; immobilized DF151, detection MAB1720; antigen 1 pg/mL
Description: as §1, §2, §4

[14] = molecular target: T1, soluble-type human DSG3-mouse IgG2aFc …; experiment: sandwich ELISA, luminescence over blank; immobilized DF151, detection MAB1720; antigen 40 pg/mL
Description: as §1, §2, §3

[15] = molecular target: T1, soluble-type human DSG3-mouse IgG2aFc …; experiment: sandwich ELISA, luminescence over blank; immobilized DF151, detection D219-3; antigen 40 pg/mL
Description: as §1, §2, §3

S/N ratio [1]: 2.3
S/N ratio [2]: 0.9
S/N ratio [3]: 2.8
S/N ratio [4]: 0.8
S/N ratio [5]: 9.2
S/N ratio [6]: 1
S/N ratio [7]: 50.3
S/N ratio [8]: 1.6
S/N ratio [9]: 1.1
S/N ratio [10]: 4.1
S/N ratio [11]: 0.9
S/N ratio [12]: 17.7
S/N ratio [13]: 1
S/N ratio [14]: 1.1
S/N ratio [15]: 0.8
B1: DF151 (DF151[I] antibody) (antibody, mouse IgG2b, kappa, V domains shown)
VH: EVQLQQSGPELVKPGASVKISCKASGYSFTAYYMHWVKQSPEKCLEWIGQINPSTGGTTYNQKFKAKATLTVDKSSSTAYMQLKSLTSEDSAVYYCARWGDSWGQGTTLTVSS
VL: DIVLTQSPASLAVSLGQSVTISCRASESVEYYGTSLMQWYQQKPGQPPKLLIYGASDVESGVPARFSGSGSGTDFSLNIHPVEEDDIAMYFCQQSRKVPYTFGSGTKLEIKR
notes: Complete antibody; Biotinylated as detection antibody in ELISA; labeled with Alexa Fluor 647 as detection antibody in SPFS; also called DF151 antibody

Source: patent US20150276749A1 (KONICA MINOLTA, published 2015)
